In article doi:10.1101/2020.05.14.095364 (bioRxiv, 2020):

B1: GFP-tagged hZO-1 (residues 1619-1748), isolated ZU5 fragment (domain or fragment, human, UniProt Q07157 1619-1748, looked up)
chain: SAVEEDEDEDGHTVVATARGIFNSNGGVLSSIETGVSIIIPQGAIPEGVEQEIYFKVCRDNSILPPLDKEKGETLLSPLVMCGPHGLKFLKPVELRLPHCDPKTWQNKCLPGDPNYLVGANCVSVLIDHF
B2: GST-CGN(1-70) (domain or fragment, canine, UniProt A7YH32 1-70, looked up)
chain: MEQASTMAEPRGPVDHGVQIRFITEPVGNAEMDTLRRGGRRPAKDARANTYGVAVRVQGIAGQPFVVLNS

Experiments:
[1] = biological target: B2; experiment: pull-down
[2] = biological target: B1; experiment: quantitative GST-pulldown supernatant depletion assay

Binder	fold binding against the other ZO-1 fragments [1]	Kd [2]
B1	> 4 fold	–
B2	–	40.4 nM
